The source of these data is publication PMC10303457 (2023).

No end group written: not given here.

What all share (assay): FP
The target in assay [1] is T1, Human IMPα3 aa 64–521 (lacking the IMPβ binding domain) (human, UniProt O00629 64-521).
T1 chain: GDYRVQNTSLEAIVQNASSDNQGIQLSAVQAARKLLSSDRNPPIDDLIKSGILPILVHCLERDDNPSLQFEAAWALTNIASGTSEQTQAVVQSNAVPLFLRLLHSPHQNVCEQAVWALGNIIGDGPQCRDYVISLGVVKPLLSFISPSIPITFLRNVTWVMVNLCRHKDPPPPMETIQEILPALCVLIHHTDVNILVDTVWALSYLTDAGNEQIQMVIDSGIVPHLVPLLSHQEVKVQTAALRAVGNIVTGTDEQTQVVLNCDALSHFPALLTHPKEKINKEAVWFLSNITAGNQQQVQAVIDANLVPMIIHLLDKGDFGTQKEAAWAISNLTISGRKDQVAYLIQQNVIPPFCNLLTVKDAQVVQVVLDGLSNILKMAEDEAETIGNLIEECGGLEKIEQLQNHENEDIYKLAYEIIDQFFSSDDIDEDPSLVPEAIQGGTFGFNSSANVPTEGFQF

In assay [2] the target is Human IMPα5 aa 74–538 (lacking the IMPβ binding domain) (human, UniProt P52294 74-538).
Assay [3] addresses Human IMPα1 aa 71–529 (lacking the IMPβ binding domain) (human, UniProt P52292 71-529).

Human IMPα5 aa 74–538 (lacking the IMPβ binding domain), sequence (P52294 74-538): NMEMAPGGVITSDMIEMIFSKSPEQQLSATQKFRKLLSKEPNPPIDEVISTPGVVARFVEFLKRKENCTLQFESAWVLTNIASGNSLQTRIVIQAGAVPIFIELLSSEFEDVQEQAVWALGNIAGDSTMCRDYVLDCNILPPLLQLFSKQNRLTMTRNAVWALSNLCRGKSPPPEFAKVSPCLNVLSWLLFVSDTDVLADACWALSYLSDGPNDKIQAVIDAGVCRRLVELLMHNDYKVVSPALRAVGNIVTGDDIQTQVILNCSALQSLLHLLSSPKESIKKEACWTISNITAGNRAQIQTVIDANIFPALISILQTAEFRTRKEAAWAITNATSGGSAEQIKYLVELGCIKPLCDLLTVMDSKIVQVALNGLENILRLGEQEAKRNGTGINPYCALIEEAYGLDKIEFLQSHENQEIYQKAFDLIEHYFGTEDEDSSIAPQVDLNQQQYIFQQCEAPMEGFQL

B1: FITC-labelled HeV M NLS1 peptide (peptide)
peptide: SGKRKKIRTIAAYPLGVGKS
modifications: also: FITC-labelled, site not given here
Consider B1, for which the Kd in assay [1] stood at 2470 nM; in assay [2], 1470 nM; in assay [3], 560 nM.

B2: FITC-labelled HeV M NLS2 peptide (peptide)
peptide: VRRAGKYYSVEYCKRKID
modifications: also: FITC-labelled, site not given here
As for B2, the Kd in assay [1] is 11500 nM. That is a double-digit micromolar value.

One may read the Kd as the concentration at which binding is half-saturated. Low values mean higher affinity, high ones lower affinity.
